Measurements from IntAct's records for PubMed 26524528.

Tests used:
[1] = target: lmnb1_human LMNB1 (UniProt P20700)
[2] = target: lmnb1_human LMNB1 (UniProt P20700); remark: listed apart in the source
[3] = target: lmnb1_human LMNB1 (UniProt P20700); remark: listed apart in the source

| effect of a mutation on the interaction [1] | effect of a mutation on the interaction [2] | effect of a mutation on the interaction [3] | Substance |
| --- | --- | --- | --- |
| decreasing interaction strength | disrupting interaction strength | – | Microtubule-associated protein 1 light chain 3 beta (Homo sapiens) (from UniProt Q9GZQ8) G120A |
| – | – | disrupting interaction strength | Microtubule-associated protein 1 light chain 3 beta (Homo sapiens) (from UniProt Q9GZQ8) R10A;R11A |
